Laboratory results taken from the supplement of paper PMC12455559.
± gives the standard deviation of the averaged measurements.

Tests used:
[1] = melting temperature (DSF); higher = more thermostable
Summary of the method: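 After expression in E. coli C41(DE3), the candidate enzymes were bound to nickel beads and released with SUMO protease. Their melting temperature was found by differential scanning fluorimetry with Sypro Orange on a Bio-Rad CFX96. Each sealed PCR plate well held 45 μL enzyme (0 to 0.3 mg/mL) plus 5 μL 5X dye, and fluorescence was read for 250 cycles from 25 °C at 0.3 °C per cycle (ramp 0.3 °C/s).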

[2] = purified protein yield per well (BCA); higher = higher soluble expression
Summary of the method: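 The measured quantity is purified protein yield per well, determined with the Pierce Rapid Gold BCA kit. Anything below 25 ug (0.1 mg/mL) lies under the detection threshold. Enzymes were expressed in E. coli C41(DE3) in 2 mL autoinduction cultures with 100 µg/mL kanamycin at 37 °C for 2 h, then 18 °C for 40 h, and purified on an OT-2 robot using Ni-charged magnetic beads and SUMO protease release.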

[3] = PET hydrolysis, aromatic products released after 48 h (umol product/mg enzyme); higher = more PET depolymerization activity
Summary of the method: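 Candidate enzymes, made tagless by SUMO cleavage and purified on nickel beads, were added at 5 μg (50 μL) to 3.5 mg of either amorphous PET film or crystalline PET powder in 450 μL buffer. The sealed plates stood unshaken for 48 h at 40 or 60 °C. Activity on PET is the aromatic product found in the supernatant per mg enzyme, read at 260 and 280 nm against buffer blanks.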

[4] = substrate: aFilm, 40 °C, pH 4.5
[5] = substrate: aFilm, 40 °C, pH 5.5
[6] = substrate: aFilm, 40 °C, pH 6.5
[7] = substrate: aFilm, 40 °C, pH 7.5
[8] = substrate: aFilm, 60 °C, pH 4.5
[9] = substrate: aFilm, 60 °C, pH 5.5
[10] = substrate: aFilm, 60 °C, pH 6.5
[11] = substrate: aFilm, 60 °C, pH 7.5
[12] = substrate: cryPow, 40 °C, pH 4.5
[13] = substrate: cryPow, 40 °C, pH 5.5
[14] = substrate: cryPow, 40 °C, pH 6.5
[15] = substrate: cryPow, 40 °C, pH 7.5
[16] = substrate: cryPow, 60 °C, pH 4.5
[17] = substrate: cryPow, 60 °C, pH 5.5
[18] = substrate: cryPow, 60 °C, pH 6.5
[19] = substrate: cryPow, 60 °C, pH 7.5

| Sequence | melting temperature [1] [C] | purified protein yield per well [2] [µg] | PET hydrolysis [3, 4] | PET hydrolysis [3, 5] | PET hydrolysis [3, 6] | PET hydrolysis [3, 7] | PET hydrolysis [3, 8] | PET hydrolysis [3, 9] | PET hydrolysis [3, 10] | PET hydrolysis [3, 11] | PET hydrolysis [3, 12] | PET hydrolysis [3, 13] | PET hydrolysis [3, 14] | PET hydrolysis [3, 15] | PET hydrolysis [3, 16] | PET hydrolysis [3, 17] | PET hydrolysis [3, 18] | PET hydrolysis [3, 19] | PET hydrolysis ([3]; substrate: cryPow, 40 °C, pH 8.5) |
| --- | --- | --- | --- | --- | --- | --- | --- | --- | --- | --- | --- | --- | --- | --- | --- | --- | --- | --- | --- |
| DSPYQRGPDPTLASVAATRGPFATTQATVPAGNGFNGGFVYYPTDTSLGTWGAVAIVPGYSALFANEEAWMGPWLASFGFVVLGIETNSRTDGADARATQLLAGLDYLTRTSPVRSRVDANRLGVMGHSAGGAGTLLAALRRPSLKTAVGLAPGTPGNNLNMSTTQVPTLLLSGQNDGTVTPSYVQGIYNTLPATVEHAWAELAGNDHLSFTRSNPTEMRLLIPWLKIFLDSDTRYTQFLCPLADSTGVSRYSSTCPLVPSGGPTPPPTTTPPPPTTTPPPTSTPPPPTTTPPPTTPPAGTACTATYRTVNSWSGGFQAEVTVTAGSTATDGWTVRWNLGAGQSVSQVWNGTLSTSGTTATVRNAAYNGTLAPGTSTTFGFLGSGTPSSPSPTCTSP [ESM011] | 62.2 | 240 | < 3 | < 3 | < 3 | < 3 | < 3 | < 3 | < 3 | < 3 | < 3 | < 3 | < 3 | < 3 | < 3 | < 3 | < 3 | < 3 |  |
| ADLLSQGRPATASSTEKESTPASAAVDGDTGTRWSSTFGDPQWLQVDLGATATLSRIVLRWEAAYARTFRIQTSDDGTAWTTVHSTTTGAGGVQTLDVNGTGRYVRLHGTQRGTLYGYSLWEFQVYGSGDGTPPDGTIPDPTTASLEAAAGPLPTAAYTVPSPSGYGSGTVTYPTSGGAYPGVVLMPGYQGTQENLRWLAPRLASWGFVVLNVGTTTLLDDPASRGRQISAAGIQLLALGGTSGNPLSGKLDGTLGAVGHSMGGGGVMAALRDDPRFRAGVPTAPYYPNMNFSQVTDPTFFLTCQSDPVAHGNTYAVPWYTTMSRAEKLYVEVPGDHLCPMTGYGDKARQGKWIVSFLSLWLRADTRFGPFLCGPAREADKNNTALVTRWMDTCPF [TEP160] | 68.5 | 31 |  |  |  |  |  |  |  |  | < 3 | < 3 | < 3 | < 3 |  |  |  |  |  |
| MAGAAGWPSTASAADNPYQRGPAPTAASIAADRGPFATAQVTVPRGNGFGGGVIYYPTDTSQGTFGAIAIAPGFSTAWSYYAWQGPRLASFGFVVIGIETNTLNDYADARAAQLLAALDYLVNSSSVRDRVDRNRLAVGGHSMGGGGAILAANQRPSLLTAVGQAPYVPDGSLSGIKSPTIIFAGQTDGTVTPQYAQNAYNTIPGSVERAYVEIANEGHGFPAGGGGGNSGAFARTMMIWLKLFVDKDTRYAPFLCPALTNANGISKYMASCPLDPPGGGPTASPTSTPTSTPTSTPTGSPPTGSTSSLRGVASGRCLDVNGASQSNGATVLIWDCNGQSNQKWTSTSASELRVYGGKCLDVNGGGTADGTAVIIWDCNGQNNQKWRFNSDSSITAVGANKCLDVSANGTANGTRVQIWSCTGGGNQKWTRV [ESM024] | 62.8 | 86.8 |  |  |  |  |  |  |  |  | < 3 | < 3 | 3 | 4 |  |  |  |  |  |
| ADNPYQRGPDPTLASVSATRGTFATAQVSVPAGNGFASGVIYYPTDTSQGTFGGVAIVPGYSALFANEEAWMGPWLASFGFVVIGIETNSRTDSADARGTQLLAALDYLTQRSAVRDRVDPNRLSVIGHSAGGAGVLSALLRRPTLKAAVGLAPGSPVGDYSLYNDRVPTMFISGERDTTVTRSYLNGLYTTIPASTPSAWVEITGVDHLFATRANTTEMRVLIPWLKIFLDNDTRYTQFLCPQLADPGNVSMYRNKCPYVPPGGSSPSASPSTSPSASPSTSPSASPSVSPSPSPSPSPSASPSTSRACTASYRTVNSWSGGFQGEVTVTAGTSAINGWTVGWTLSGGQTINQLWNGTLSANGSAVRVTNVSYNGSIPASGSSTFGFLGTGTPSNPTLTCTSP [ESM040] | 59.8 | 526 |  |  |  |  |  |  |  |  | < 3 | < 3 | < 3 | < 3 | < 3 | < 3 | < 3 | < 3 |  |
| ADNPYQRGPDPTPASIAADHGPFATAQTTIPKGNGLGGGIVYYPTDTSQGTFGAIAIAPGYGTEWRWYGWLGPRLASFGFVVVGIETNSLSDYADARADQLLAALDWLVTSSPVRDRVDRTRLAVGGHSMGGGGALVAATRRPSLRSAVGMAPYVPDGILRGTSVPTILFGGQADTTVTPAYLASAYATIPATVPRAYPEIAGEGHGFAAGGGGGNSGAFARVMMVWLKVFVDADTRYPPFLCPTLSNTSGISKYQASCPLGPGGTIPPPDTSRLANANAGRCLDASGAGTANGTKVILWTCNHGANQQWNRT [ESM139] | 65.5 | 305 | < 3 | < 3 | < 3 | < 3 | < 3 | < 3 | < 3 | < 3 | < 3 | < 3 | 1.5 ± 2.1 | 3.5 ± 0.71 | < 3 | < 3 | < 3 | < 3 |  |
| GQAAVPVAVAGTSAFAKGPDPTEQSIQAQRGPFATAQRTVPSEAGRAFNRGTVHYPTDTSHGTYGAVVVSPGFFGPEFSVAWYGSTLASHGFVVLTLETNFLFDQPDARATQLLAGLDWLAARSPVKDRVDPNRLAVMGHSMGGGGTLIAASRNPALKAAIPLTPWNTSPDFSTVTVPTLVLGTDNDTVAPVARHADPMYASLRDKPDEGYVKLRGDHFTPIRYTAAATRFIVPWLKRYVDEDTRYSRFLCPLPAPDATLVSFELRCPV [DP040] | 40.3 | 28 |  |  |  |  |  |  |  |  |  | < 3 | 3 | < 3 |  |  |  |  | < 3 |
| ADQRGPDPTVQSIEAARGPFATSTSRVSSLVSGFGGGTIYYPTDTSQGRFGGVVIAPGYTAGESSIAWLGPRLASQGFVVFTIDTLTRVDQPASRGRQLLAAADYLTQRSDVADRVDPARLAVMGHSMGGGGTLEAAKSRPGLKAIIPLTPWNLDKTWPEITTPTLIFGAQNDSVASVVTHARPFYQSLPATTPRSYLELRGASHFAPNLSNTTIAKYSIAWLKRFVDDDQRYTQFLCPAPADTALSDVRTSCPF [TEP091] | 55.6 | 36.2 |  |  |  |  |  |  |  |  | < 3 | 5 | 10 | 17 |  |  |  |  |  |
